Results: patent US20190202901A1

What was measured:
[1] = molecular target: recombinant human IGF-1R protein (R&D Systems, Cat 391-GR) (human) (UniProt P08069); experiment: direct ELISA, rhIGF-1R coating, antibody at 5 µg/ml
[2] = molecular target: recombinant human IGF-1R protein (R&D Systems, Cat 391-GR) (human) (UniProt P08069); experiment: direct ELISA on rhIGF-1R coating, dose response
[3] = molecular target: recombinant human IGF-1R protein (R&D Systems, Cat 391-GR) (human) (UniProt P08069); experiment: direct ELISA, rhIGF-1R coated, goat anti-mouse IgG-HRP, TMB, OD 450 nm; Prism sigmoidal dose-response (variable slope) fit
[4] = molecular target: recombinant murine IGF-1R protein (R&D Systems, Cat 6630-GR/Fc) (murine) (UniProt Q60751); experiment: direct ELISA, rmIGF-1R coating, antibody at 5 µg/ml

OD [1] [OD 450 nm] | EC50 [2] [nM] | BOTTOM (best-fit value) [3] | EC50 [3] [nM] | LOGEC50 [3] | TOP (best-fit value) [3] | OD [4] [OD 450 nm] | Binder
2.62 | 0.41 | 0.116 OD (450 nm) | 0.417 | -9.38 log C [M] | 2.44 OD (450 nm) | 0.065 | 816C12 (antibody, V domains shown) VH: EVQLQQSGPELVKPGASVKMSCKASGHTFTSYVLHWMKRKPGQGLEWIGYINPHNDVTKYNENFKGKATLTSDKYSSTVYMEVSSLTSEDSAVYYCVSTAYYGNGRYFDVWGAGTTVTVSS VL: DIQMTQTTSSLSASLGDRVTISCRASQDINNYLNWYQQKPDGTVKLLIYYTSRLHSGVSSRFSGSGSGTDYSLTISNLEQEDIATYFCQQGNTLPWTFGGGTKLEIK
2.14 | 0.51 | 0.0807 OD (450 nm) | 0.513 | -9.29 log C [M] | 2.64 OD (450 nm) | 1.29 | 810D12 (antibody, V domains shown) VH: EVQLQQSGPELVKPGASVKMSCKASGHTFTSYMLHWVKQKPGQGLEWLGFINPYNDVTKYNENFKGKATLTSDKSSSTAYMELNSLTSEDSAVYFCVTTAYYGNGRYFDVWGAGTTVTVSS VL: DIQMTQTTSSLSASLGDRVTISCRASQDITNYLTWYQQKPDGTVKVLIYYTSRLYSGVPSRFSGSGSGSDYSLTINNLEQEDIATYFCQQGYSLPWTFGGGTKLEIK
